{"source": "paper PMC1849897", "binders": {"B1": {"name": "3' Tail (o1/o2) (mixed)", "DNA 1": "GACGCTGCCGAATTCTGGCTTGCTAGGACATCTTTGCCCACGTTGACCCG", "DNA 2": "ATGTCCTAGCAAGCCAGAATTCGGCAGCGTC"}, "B2": {"name": "Forked (o1/o3) (mixed)", "DNA 1": "B1 DNA 1", "DNA 2": "CGAATAATCGTCATGTCCTAGCAAGCCAGAATTCGGCAGCGTC"}, "B3": {"name": "o1 (ssDNA)", "DNA": "B1 DNA 1"}}, "experiment_in_all_cases": "filter binding", "key": {"[1]": {"target": "T1, Py-DmBLM (Drosophila Bloom's syndrome helicase) (Drosophila, UniProt Q9VGI8 1-1487)", "T1 sequence (Q9VGI8 whole entry)": "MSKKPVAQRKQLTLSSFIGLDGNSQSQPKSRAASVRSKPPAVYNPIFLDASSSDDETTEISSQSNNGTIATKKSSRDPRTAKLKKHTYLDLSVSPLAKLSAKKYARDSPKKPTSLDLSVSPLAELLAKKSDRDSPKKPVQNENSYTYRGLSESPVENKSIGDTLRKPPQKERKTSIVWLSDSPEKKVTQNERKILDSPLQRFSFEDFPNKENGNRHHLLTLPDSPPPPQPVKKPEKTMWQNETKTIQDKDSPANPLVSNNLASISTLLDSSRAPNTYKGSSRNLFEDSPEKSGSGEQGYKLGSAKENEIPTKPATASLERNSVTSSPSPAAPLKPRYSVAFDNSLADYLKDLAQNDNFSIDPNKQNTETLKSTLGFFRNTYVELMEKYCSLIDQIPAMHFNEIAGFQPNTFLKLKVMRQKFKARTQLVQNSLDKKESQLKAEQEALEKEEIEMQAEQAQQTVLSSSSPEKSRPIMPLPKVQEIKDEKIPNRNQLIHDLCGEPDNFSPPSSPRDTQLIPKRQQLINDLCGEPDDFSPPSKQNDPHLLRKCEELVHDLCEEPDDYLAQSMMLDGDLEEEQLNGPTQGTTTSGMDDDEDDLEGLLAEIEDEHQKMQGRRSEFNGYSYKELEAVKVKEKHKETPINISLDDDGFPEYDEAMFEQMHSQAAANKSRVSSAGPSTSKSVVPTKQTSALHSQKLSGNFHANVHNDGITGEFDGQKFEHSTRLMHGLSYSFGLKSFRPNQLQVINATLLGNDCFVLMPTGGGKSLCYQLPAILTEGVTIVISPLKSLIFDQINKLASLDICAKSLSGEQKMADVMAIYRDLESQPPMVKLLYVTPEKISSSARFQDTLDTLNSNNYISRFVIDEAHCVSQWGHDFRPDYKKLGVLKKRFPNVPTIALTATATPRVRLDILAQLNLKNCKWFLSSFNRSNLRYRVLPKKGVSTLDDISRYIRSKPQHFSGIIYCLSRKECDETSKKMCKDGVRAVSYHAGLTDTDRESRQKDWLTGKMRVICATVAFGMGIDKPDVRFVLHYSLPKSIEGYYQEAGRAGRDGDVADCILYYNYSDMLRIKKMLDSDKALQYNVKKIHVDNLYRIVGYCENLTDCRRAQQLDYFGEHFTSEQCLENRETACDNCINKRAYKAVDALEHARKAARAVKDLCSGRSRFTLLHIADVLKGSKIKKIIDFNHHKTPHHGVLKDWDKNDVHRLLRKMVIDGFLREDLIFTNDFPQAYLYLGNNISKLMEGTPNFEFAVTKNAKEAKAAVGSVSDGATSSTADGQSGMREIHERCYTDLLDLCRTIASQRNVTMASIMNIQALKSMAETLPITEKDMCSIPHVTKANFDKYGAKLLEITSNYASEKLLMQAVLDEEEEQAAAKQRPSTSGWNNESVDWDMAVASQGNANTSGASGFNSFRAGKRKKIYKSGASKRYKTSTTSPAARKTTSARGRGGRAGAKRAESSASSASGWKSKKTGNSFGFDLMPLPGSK"}, "[2]": {"target": "T1, Py-DmBLM (Drosophila Bloom's syndrome …)", "remark": "listed apart in the source"}, "[3]": {"target": "T1, Py-DmBLM (Drosophila Bloom's syndrome …)", "remark": "listed apart in the source"}}, "note": "Like-named read-outs stand apart in the source and are kept apart here.", "data": [{"binder": "B1", "values": [{"measurement": "binding result", "setting": "[1]", "result": "binds"}]}, {"binder": "B2", "values": [{"measurement": "binding result", "setting": "[2]", "result": "binds"}]}, {"binder": "B3", "values": [{"measurement": "binding result", "setting": "[3]", "result": "binds"}]}]}
